Results taken from the supplement of paper PMC7125110.
± gives the standard error. For part of these data: Fewer inactive variants are shown than the library holds.

B1: glmS ribozyme (parent)
chain: AUAAAAGCGCCAGAACUACAGAAAUGUAGUUGACGAGGAGGAGGUUUAUCGAAUUUUCGGCGGAUGCCUCCAAA

Tests used:
Settings in all cases: with glucosamine-6-phosphate
glucosamine-6-phosphate [1] = variants of: B1; assay: kcat; higher = faster cleavage; RNA array
Method in brief: (§1)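 Tiles bearing barcoded ribozyme variants, transcribed in situ by E. coli RNA polymerase on sequenced MiSeq chips, were imaged over ~14 h at 37 °C using a hybridised Cy3 probe. Glucosamine-6-phosphate was supplied at 40 μM to 10 mM in HEPES/KCl/Mg(OAc)2 buffer. kobs came from one- or two-exponential decay fits to normalised per-tile medians, and weighted Michaelis–Menten fits then provided kcat and KM.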

glucosamine-6-phosphate [2] = variants of: B1; assay: self-cleavage kobs at 40 uM GlcN6P; higher = faster cleavage; RNA array
Method in brief: as §1

glucosamine-6-phosphate [3] = variants of: B1; assay: KM; higher = weaker cofactor use; RNA array
Method in brief: as §1

glucosamine-6-phosphate [4] = variants of: B1; assay: self-cleavage kobs at 640 uM GlcN6P; higher = faster cleavage; RNA array
Method in brief: as §1

glucosamine-6-phosphate [5] = variants of: B1; assay: self-cleavage kobs at 2500 uM GlcN6P; higher = faster cleavage; RNA array
Method in brief: as §1

glucosamine-6-phosphate [6] = variants of: B1; assay: self-cleavage kobs at 10000 uM GlcN6P; higher = faster cleavage; RNA array
Method in brief: as §1

glucosamine-6-phosphate [7] = variants of: B1; assay: self-cleavage kobs at 160 uM GlcN6P; higher = faster cleavage; RNA array
Method in brief: as §1

| Variant | kcat (glucosamine-6-phosphate [1]) [s⁻¹] | self-cleavage kobs at 40 uM GlcN6P (glucosamine-6-phosphate [2]) [s⁻¹] | KM (glucosamine-6-phosphate [3]) [mM] | self-cleavage kobs at 640 uM GlcN6P (glucosamine-6-phosphate [4]) [s⁻¹] | self-cleavage kobs at 2500 uM GlcN6P (glucosamine-6-phosphate [5]) [s⁻¹] | self-cleavage kobs at 10000 uM GlcN6P (glucosamine-6-phosphate [6]) [s⁻¹] | self-cleavage kobs at 160 uM GlcN6P (glucosamine-6-phosphate [7]) [s⁻¹] |
| --- | --- | --- | --- | --- | --- | --- | --- |
| G59A C71A | < 1e-05 | < 1e-05 | – | – | – | – | – |
| A12C G44A | 0.000291 ± 2.6e-05 | – | 1.58 ± 0.27 | 8.35e-05 ± 1.2e-05 | 0.000204 ± 4e-05 | 0.00024 ± 3.8e-05 | – |
| A39U C70A | 0.000394 ± 9.4e-05 | 5.15e-05 ± 9.3e-06 | 0.558 ± 0.25 | 0.000187 ± 2.3e-05 | 0.000403 ± 6.9e-05 | 0.000382 ± 5.4e-05 | 7.96e-05 ± 1.2e-05 |
| C11A U69A | 4.95e-05 ± 1.6e-05 | – | – | 6.89e-05 ± 2.4e-05 | 7.69e-05 ± 2.5e-05 | – | – |
| A6G C11U | 2.61e-05 ± 3.3e-06 | < 1e-05 | – | – | 2.57e-05 ± 1.2e-05 | 2.38e-05 ± 7.5e-06 | < 1e-05 |
| G32U C58G | 0.00149 ± 0.00016 | – | 8.79 ± 1.3 | 0.000102 ± 1.7e-05 | 0.000294 ± 7.3e-05 | 0.000802 ± 9.7e-05 | 3.01e-05 ± 9.4e-06 |
| U47G A52C | 1.4e-05 ± 1.8e-06 | – | – | – | – | – | – |
| C50G C61G | 0.000119 ± 1.7e-05 | 8.54e-05 ± 1.1e-05 | – | 0.000115 ± 1.6e-05 | 0.000161 ± 2e-05 | 9.9e-05 ± 1e-05 | 0.000156 ± 1.9e-05 |
| C10U U56G | 3.3e-05 ± 4.5e-06 | – | – | – | 2.86e-05 ± 8.5e-06 | 2.92e-05 ± 6.7e-06 | – |
| C8U U31A | < 1e-05 | – | – | < 1e-05 | – | – | – |
| G32A A39G | 0.00635 ± 0.0016 | 3.65e-05 ± 8.1e-06 | 6.19 ± 2 | 0.000619 ± 9.3e-05 | 0.00165 ± 0.0003 | 0.00403 ± 0.00055 | 0.000271 ± 7.2e-05 |
| G32A A39U | 0.00242 ± 0.00045 | – | 6.09 ± 1.6 | 0.000213 ± 2.9e-05 | 0.000855 ± 0.0001 | 0.00144 ± 0.00017 | 6.05e-05 ± 1.1e-05 |
| A15C C16A | 0.00213 ± 0.00077 | 5.77e-05 ± 8.7e-06 | – | 0.000522 ± 8e-05 | 0.000888 ± 0.00013 | 0.00248 ± 0.00031 | 0.000139 ± 3e-05 |
| A14G U65A | 0.0124 ± 0.0022 | 0.000169 ± 1.9e-05 | 3.35 ± 0.8 | 0.00213 ± 0.00035 | 0.00492 ± 0.00087 | 0.0094 ± 0.00098 | 0.000424 ± 8.6e-05 |
| U47G C58A | 0.000264 ± 4e-05 | – | 2.26 ± 0.69 | 5.5e-05 ± 1.2e-05 | 0.000177 ± 4.2e-05 | 0.000208 ± 3.2e-05 | – |
| C10A U65A | 1.06e-05 ± 3e-06 | – | – | – | – | – | – |
